Drawing on PMC10397247, this text covers interaction score for three molecules.

Assay [1] addresses T1, P9SHb.
T1 chain: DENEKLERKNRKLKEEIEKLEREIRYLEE
The experiment in a line: two-hybrid library CCNG1.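 Also: natural log of median RNA to DNA barcode read ratio; higher means stronger binding.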

The target in assay [2] is T2, 4H2915-bH.
T2 chain: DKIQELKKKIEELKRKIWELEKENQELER
The experiment in a line: two-hybrid library CCNG1.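 Also: natural log of median RNA to DNA barcode read ratio; higher means stronger binding.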

Assay [3] deals with T3, 4H3057-bH.
T3 chain: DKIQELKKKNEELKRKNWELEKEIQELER
Nature of the assay: two-hybrid library CCNG1.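 Also: natural log of median RNA to DNA barcode read ratio; higher means stronger binding.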

For assay [4], the target named is T4, 4H319-bH.
T4 chain: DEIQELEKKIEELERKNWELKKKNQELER
The experiment in a line: two-hybrid library CCNG1.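 Also: natural log of median RNA to DNA barcode read ratio; higher means stronger binding.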

Assay [5] concerns the target T5, 4H3277-bH.
T5 chain: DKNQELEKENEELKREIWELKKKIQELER
Nature of the assay: two-hybrid library CCNG1.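 Also: natural log of median RNA to DNA barcode read ratio; higher means stronger binding.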

For assay [6], the target named is T6, 4H348-bH.
T6 chain: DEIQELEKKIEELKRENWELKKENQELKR
The experiment in a line: two-hybrid library CCNG1.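 Also: natural log of median RNA to DNA barcode read ratio; higher means stronger binding.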

Assay [7] addresses T7, 4H40-bH.
T7 chain: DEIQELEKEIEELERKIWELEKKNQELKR
The experiment in a line: two-hybrid library CCNG1.

Assay [8] has as its target T8, 4H477-bH.
T8 chain: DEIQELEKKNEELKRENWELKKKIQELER
Nature of the assay: two-hybrid library CCNG1.

Assay [9] has as its target T9, 4H492-bH.
T9 chain: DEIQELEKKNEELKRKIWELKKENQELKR
Nature of the assay: two-hybrid library CCNG1.

The target in assay [10] is T10, 4H741-bH.
T10 chain: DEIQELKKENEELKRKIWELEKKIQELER
The experiment in a line: two-hybrid library CCNG1.

Assay [11] addresses T11, 4H3587-AA.
T11 chain: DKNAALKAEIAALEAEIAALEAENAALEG
The experiment in a line: two-hybrid library CCmax.

In assay [12] the target is T12, 4H3590-AA.
T12 chain: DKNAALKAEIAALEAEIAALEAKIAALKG
The experiment in a line: two-hybrid library CCmax. Particulars: mean of both orientations.

Assay [13] has as its target T13, 4H3625-AA.
T13 chain: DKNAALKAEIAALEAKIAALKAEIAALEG
Nature of the assay: two-hybrid library CCmax. Conditions: mean of both orientations.

Assay [14] has as its target T14, 4H384-AA.
T14 chain: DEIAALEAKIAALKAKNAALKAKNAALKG
The experiment in a line: two-hybrid library CCmax. Particulars: mean of both orientations.

Assay [15] addresses T15, 4H3905-AA.
T15 chain: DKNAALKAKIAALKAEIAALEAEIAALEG
The experiment in a line: two-hybrid library CCmax. Conditions: mean of both orientations.

The target of assay [16] is T16, 4H4038-AA.
T16 chain: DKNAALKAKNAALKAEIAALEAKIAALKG
Nature of the assay: two-hybrid library CCmax. Conditions: mean of both orientations.

Assay [17] addresses T17, 4H43-AA.
T17 chain: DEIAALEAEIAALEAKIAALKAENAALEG
Nature of the assay: two-hybrid library CCmax. Particulars: mean of both orientations.

The target in assay [18] is T18, 4H451-AA.
T18 chain: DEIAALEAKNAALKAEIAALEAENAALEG
Nature of the assay: two-hybrid library CCmax. Conditions: mean of both orientations.

Assay [19] concerns the target T19, 4H510-AA.
T19 chain: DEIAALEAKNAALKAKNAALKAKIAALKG
Nature of the assay: two-hybrid library CCmax. Conditions: mean of both orientations.

Assay [20] addresses T20, 4H_APH.
T20 chain: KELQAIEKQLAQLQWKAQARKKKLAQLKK
Nature of the assay: two-hybrid library CCmax.

In assay [21] the target is T21, 4H_BCR.
T21 chain: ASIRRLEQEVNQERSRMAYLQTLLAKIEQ
Nature of the assay: two-hybrid library CCmax.

In assay [22] the target is 4H_GCN4. The experiment in a line: two-hybrid library CCmax.
In assay [23] the target is GCN2_T. Nature of the assay: two-hybrid library CCmax.
For assay [24], the target named is T22, O11-AA.
T22 chain: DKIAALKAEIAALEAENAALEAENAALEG
The experiment in a line: two-hybrid library CCmax. Particulars: mean of both orientations.

Assay [25] deals with T23, O13-AA.
T23 chain: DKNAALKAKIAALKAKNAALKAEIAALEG
Nature of the assay: two-hybrid library CCmax. Conditions: mean of both orientations.

Assay [26] deals with T24, O14-AA.
T24 chain: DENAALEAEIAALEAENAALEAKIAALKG
Nature of the assay: two-hybrid library CCmax. Particulars: mean of both orientations.

Chain of 4H_GCN4 (chain, as listed by the source): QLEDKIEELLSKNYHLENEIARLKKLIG

As to DENEKLERKNRKLKEEIEKLEREIRYLEE [P9SHb], the interaction score in assay [1] was -0.553.
Consider DKIQELKKKIEELKRKIWELEKENQELER [4H2915-bH], for which the interaction score in [2] is 0.772; in [3], -0.637; in assay [4], -1.33; in assay [5], -1.15; in assay [6], -0.507; in [7], -1.4. Also, the interaction score in assay [8] is -2.15; in [9] it was -1.59; in assay [10] it was -0.324.
With DKNAALKAEIAALEAEIAALEAENAALEG [4H3587-AA], the interaction score in assay [11] is -2.04; in assay [12], -0.934; in [13], -0.634; in assay [14], 1.5; in assay [15] it was -0.0465; in assay [16] it was -1.05. In addition, the interaction score in assay [17] was -0.335; in assay [18], -1.79; in [19], -0.509; in assay [20], -1.77; in assay [21], -2.15; in assay [22] it was -1.87. The interaction score in assay [23] was -2.29; in [24], -1.13; in assay [25], 0.274; in assay [26], -1.35.
